Experimental data from publication doi:10.1101/2022.07.11.499521.

Target: Vairimorpha necatrix 20S proteasome core particle (Vairimorpha necatrix (endogenous in spores))
Test: cryo-EM structure

percent of proteasome particles capped by RP: 12%
Substance: Vairimorpha necatrix 19S regulatory particle (complex)
